Test results: the supplement of paper PMC9112550, “Optimization of the antimicrobial peptide Bac7 by deep mutational scanning” (BMC Biology, 2022)

System: Escherichia coli TOP10
Assay: shrunken log2 fold change of peptide-encoding DNA abundance (4.5 h post-induction vs induction); higher = less antimicrobial activity (less host growth inhibition)
Settings: time post-induction: 4.5 h; library: site-saturation at positions 5, 18, 19, 20
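Note: peptides expressed intracellularly from a pBAD plasmid library in pooled LB shake-flask culture, induced with 0.3% L-arabinose, DNA abundance read by NGS, three biological replicates, DESeq2 with apeglm shrinkage.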

| Sequence | shrunken log2 fold change |
| --- | --- |
| RRIRTRPPRLPRPRPRPFWQPRP | 0.0872 |
| RRIRPRPPRLPRPRPRPTKQPRP | 0.169 |
| RRIRARPPRLPRPRPRPWHNPRP | -0.0874 |
| RRIRDRPPRLPRPRPRPAPYPRP | -0.352 |
| RRIRWRPPRLPRPRPRPVQDPRP | -0.103 |
| RRIRQRPPRLPRPRPRPFFSPRP | -0.313 |
| RRIRARPPRLPRPRPRPRLGPRP | 0.606 |
| RRIRNRPPRLPRPRPRPLSQPRP | -0.00581 |
| RRIRWRPPRLPRPRPRPVTIPRP | -0.269 |
| RRIRKRPPRLPRPRPRPMQCPRP | -0.0161 |
| RRIRWRPPRLPRPRPRPKVCPRP | -0.0693 |
| RRIRFRPPRLPRPRPRPIFHPRP | -0.295 |
| RRIRRRPPRLPRPRPRPGNNPRP | -0.365 |
| RRIRKRPPRLPRPRPRPLELPRP | 0.134 |
| RRIRTRPPRLPRPRPRPAKMPRP | -0.0252 |
| RRIRNRPPRLPRPRPRPIFNPRP | -0.302 |
| RRIRMRPPRLPRPRPRPFLNPRP | -0.247 |
| RRIRIRPPRLPRPRPRPDAWPRP | 0.32 |
| RRIRIRPPRLPRPRPRPCERPRP | -0.0509 |
| RRIRWRPPRLPRPRPRPYATPRP | 0.289 |
| RRIRGRPPRLPRPRPRPDIDPRP | 2.17 |
| RRIRYRPPRLPRPRPRPTKPPRP | -0.013 |
| RRIRSRPPRLPRPRPRPNQMPRP | 0.0306 |
| RRIRCRPPRLPRPRPRPWPFPRP | -0.121 |
| RRIRSRPPRLPRPRPRPDDVPRP | 0.14 |

| Sequence | shrunken log2 fold change |
| --- | --- |
| RRIRERPPRLPRPRPRPRMQPRP | -0.0907 |
| RRIRARPPRLPRPRPRPNCCPRP | 0.131 |
| RRIRVRPPRLPRPRPRPVTCPRP | -0.155 |
| RRIRPRPPRLPRPRPRPRRLPRP | 0.279 |
| RRIRGRPPRLPRPRPRPTPCPRP | 0.662 |
| RRIRVRPPRLPRPRPRPMHTPRP | 0.0814 |
| RRIRNRPPRLPRPRPRPHPHPRP | -0.576 |
| RRIRNRPPRLPRPRPRPFFIPRP | -0.586 |
| RRIRTRPPRLPRPRPRPQEKPRP | -0.0148 |
| RRIRERPPRLPRPRPRPRGTPRP | 0.0483 |
| RRIRLRPPRLPRPRPRPSLCPRP | -0.462 |
| RRIRGRPPRLPRPRPRPKWHPRP | 0.542 |
| RRIRFRPPRLPRPRPRPQAKPRP | 0.128 |
| RRIRHRPPRLPRPRPRPEFWPRP | 0.42 |
| RRIRQRPPRLPRPRPRPCYGPRP | -0.0796 |
| RRIRGRPPRLPRPRPRPNYCPRP | 0.00136 |
| RRIRTRPPRLPRPRPRPEALPRP | 0.0496 |
| RRIRIRPPRLPRPRPRPGHCPRP | -0.247 |
| RRIRGRPPRLPRPRPRPDRYPRP | 0.152 |
| RRIRWRPPRLPRPRPRPREMPRP | 0.262 |
| RRIRQRPPRLPRPRPRPHYPPRP | -0.219 |
| RRIRFRPPRLPRPRPRPDMFPRP | -0.0758 |
| RRIRLRPPRLPRPRPRPFFRPRP | -0.0862 |
| RRIRQRPPRLPRPRPRPWRAPRP | 0.0749 |
| RRIRARPPRLPRPRPRPYKWPRP | -0.393 |

| Sequence | shrunken log2 fold change |
| --- | --- |
| RRIRMRPPRLPRPRPRPQCDPRP | -0.0599 |
| RRIRDRPPRLPRPRPRPLSIPRP | -0.0668 |
| RRIRMRPPRLPRPRPRPNDHPRP | -0.0869 |
| RRIRPRPPRLPRPRPRPRGKPRP | -0.0806 |
| RRIRPRPPRLPRPRPRPCAQPRP | -0.119 |
| RRIRTRPPRLPRPRPRPTLKPRP | 0.00476 |
| RRIRHRPPRLPRPRPRPVMHPRP | 0.000945 |
| RRIRWRPPRLPRPRPRPMVEPRP | 0.35 |
| RRIRQRPPRLPRPRPRPQGYPRP | -0.19 |
| RRIRYRPPRLPRPRPRPWDLPRP | 0.0112 |
| RRIRVRPPRLPRPRPRPLLKPRP | 0.0167 |
| RRIRKRPPRLPRPRPRPSHFPRP | 0.355 |
| RRIRPRPPRLPRPRPRPALQPRP | 0.0721 |
| RRIRYRPPRLPRPRPRPGRPPRP | 0.0326 |
| RRIRIRPPRLPRPRPRPQNKPRP | -0.668 |
| RRIRARPPRLPRPRPRPHLTPRP | -0.145 |
| RRIRCRPPRLPRPRPRPEIDPRP | 0.138 |
| RRIRSRPPRLPRPRPRPFMEPRP | -0.54 |
| RRIRERPPRLPRPRPRPVTFPRP | -0.019 |
| RRIRARPPRLPRPRPRPESMPRP | 0.77 |
| RRIRDRPPRLPRPRPRPNWTPRP | 0.0279 |
| RRIRLRPPRLPRPRPRPNTMPRP | -0.501 |
| RRIRQRPPRLPRPRPRPTKHPRP | -0.167 |
| RRIRYRPPRLPRPRPRPYPPPRP | -0.673 |
| RRIRYRPPRLPRPRPRPWMCPRP | -0.0907 |

| Sequence | shrunken log2 fold change |
| --- | --- |
| RRIRERPPRLPRPRPRPHIMPRP | -0.652 |
| RRIRVRPPRLPRPRPRPLCKPRP | -0.394 |
| RRIRMRPPRLPRPRPRPHNEPRP | -0.356 |
| RRIRERPPRLPRPRPRPTFCPRP | -0.0701 |
| RRIRGRPPRLPRPRPRPSRFPRP | 0.0371 |
| RRIRDRPPRLPRPRPRPKFGPRP | 0.0019 |
| RRIRKRPPRLPRPRPRPALPPRP | 0.936 |
| RRIRGRPPRLPRPRPRPHCTPRP | -0.0815 |
| RRIRCRPPRLPRPRPRPTLWPRP | 0.313 |
| RRIRKRPPRLPRPRPRPWCLPRP | -0.503 |
| RRIRYRPPRLPRPRPRPGNPPRP | -0.377 |
| RRIRYRPPRLPRPRPRPTFWPRP | 0.0421 |
| RRIRKRPPRLPRPRPRPIEEPRP | 0.566 |
| RRIRWRPPRLPRPRPRPRTKPRP | 1.88 |
| RRIRLRPPRLPRPRPRPSFWPRP | 0.0795 |
| RRIRIRPPRLPRPRPRPEEAPRP | 0.215 |
| RRIRVRPPRLPRPRPRPCYTPRP | -0.498 |
| RRIRHRPPRLPRPRPRPEMIPRP | 0.0986 |
| RRIRFRPPRLPRPRPRPNLVPRP | -0.453 |
| RRIRIRPPRLPRPRPRPIPYPRP | -0.295 |
| RRIRVRPPRLPRPRPRPPRRPRP | 0.491 |
| RRIRMRPPRLPRPRPRPGKPPRP | 0.0496 |
| RRIRTRPPRLPRPRPRPIVGPRP | -0.0587 |
| RRIRHRPPRLPRPRPRPMYCPRP | -0.125 |
| RRIRGRPPRLPRPRPRPHFYPRP | 0.324 |

| Sequence | shrunken log2 fold change |
| --- | --- |
| RRIRERPPRLPRPRPRPHWNPRP | -0.843 |
| RRIRQRPPRLPRPRPRPQHPPRP | -0.131 |
| RRIRERPPRLPRPRPRPPMPPRP | 0.0249 |
| RRIRMRPPRLPRPRPRPFPAPRP | 0.426 |
| RRIRERPPRLPRPRPRPQPWPRP | -0.0127 |
| RRIRLRPPRLPRPRPRPKQVPRP | -0.0171 |
| RRIRWRPPRLPRPRPRPDWAPRP | -0.107 |
| RRIRARPPRLPRPRPRPSTWPRP | -0.0645 |
| RRIRTRPPRLPRPRPRPPKAPRP | 0.0856 |
| RRIRERPPRLPRPRPRPYGLPRP | -0.0303 |
| RRIRCRPPRLPRPRPRPSWCPRP | -0.417 |
| RRIRWRPPRLPRPRPRPGPRPRP | 0.514 |
| RRIRCRPPRLPRPRPRPQTFPRP | -0.139 |
| RRIRPRPPRLPRPRPRPWTPPRP | 0.0256 |
| RRIRYRPPRLPRPRPRPKFIPRP | -1.39 |
| RRIRERPPRLPRPRPRPKQHPRP | 0.241 |
| RRIRRRPPRLPRPRPRPMRRPRP | 0.425 |
| RRIRQRPPRLPRPRPRPHEIPRP | -0.0149 |
| RRIRERPPRLPRPRPRPGLPPRP | -0.112 |
| RRIRMRPPRLPRPRPRPQMLPRP | 0.186 |
| RRIRDRPPRLPRPRPRPLLNPRP | 0.124 |
| RRIRKRPPRLPRPRPRPFQIPRP | 0.0332 |
| RRIRVRPPRLPRPRPRPGWLPRP | 0.543 |
| RRIRKRPPRLPRPRPRPVIPPRP | -0.26 |
| RRIRSRPPRLPRPRPRPQFWPRP | 0.268 |
